Assay results published in patent publication US20080274118A1 (Novartis, published 2008).
One block for each binder: values may come before it.

Experiments:
[1] = molecular target: T1, human CD40, soluble or recombinant (ELISA, Biacore) (human, UniProt P25942 21-193, limits assumed); test: Biacore (method named in paragraph 140)
T1 construct: also called soluble CD40; recombinant CD40

[2] = molecular target: T2, human CD40, cell-surface (on human B cells, monocytes and other CD40-expressing cells) (human, UniProt P25942 20-277); test: cell-based or functional assay
[3] = molecular target: T2, human CD40, cell-surface (on human B …); test: cell-based or functional assay; remark: listed apart in the source

T2 sequence (P25942 20-277): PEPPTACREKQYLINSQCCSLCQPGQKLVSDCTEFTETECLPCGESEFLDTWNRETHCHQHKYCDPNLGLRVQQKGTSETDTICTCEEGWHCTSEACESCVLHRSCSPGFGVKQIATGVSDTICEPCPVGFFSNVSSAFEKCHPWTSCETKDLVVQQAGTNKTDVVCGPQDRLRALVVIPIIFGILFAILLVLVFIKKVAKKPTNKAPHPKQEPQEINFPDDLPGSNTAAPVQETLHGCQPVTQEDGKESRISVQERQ
T1 sequence (P25942 21-193 limits assumed): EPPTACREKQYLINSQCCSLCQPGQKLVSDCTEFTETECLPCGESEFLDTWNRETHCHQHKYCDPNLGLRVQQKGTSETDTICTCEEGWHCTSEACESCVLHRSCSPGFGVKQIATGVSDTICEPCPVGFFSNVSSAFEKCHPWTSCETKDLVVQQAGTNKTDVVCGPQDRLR

Kd [1]: 0.5 nM
B1: CHIR-12.12 fully human anti-CD40 monoclonal antibody (antibody, V domains shown)
VH: QVQLVESGGGVVQPGRSLRLSCAASGFTFSSYGMHWVRQAPGKGLEWVAVISYEESNRYHADSVKGRFTISRDNSKITLYLQMNSLRTEDTAVYYCARDGGIAAPGPDYWGQGTLVTVSS
VL: DIVMTQSPLSLTVTPGEPASISCRSSQSLLYSNGYNYLDWYLQKPGQSPQVLISLGSNRASGVPDRFSGSGSGTDFTLKISRVEAEDVGVYYCMQARQTPFTFGPGTKVDIRR
notes: also called 153.8E2.D10.D6.12.12

Kd [1]: 12 nM
B2: CHIR-5.9 fully human anti-CD40 monoclonal antibody (antibody, V domains shown)
VH: EVQLVQSGAEVKKPGESLKISCKGSGYSFTSYWIGWVRQMPGKGLEWMGIIYPGDSDTRYSPSFQGQVTISADKSISTAYLQWSSLKASDTAMYYCARGTAAGRDYYYYYGMDVWGQGTTVTVSS
VL: AIVMTQPPLSSPVTLGQPASISCRSSQSLVHSDGNTYLNWLQQRPGQPPRLLIYKFFRRLSGVPDRFSGSGAGTDFTLKISRVEAEDVGVYYCMQVTQFPHTFGQGTRLEIKR
notes: also called mAb CHIR-5.9; 131.2F8.5.9

MCP-1 secretion, monocytes, Donor 1 (folds of induction over background) [2]: 290 fold
MIP-1beta secretion, monocytes, Donor 1 (folds of induction over background) [2]: 162 fold
hIL6 secretion, monocytes, Donor 1 (folds of induction over background) [2]: 77.9 fold
hIL8 secretion, monocytes, Donor 1 (folds of induction over background) [2]: 124 fold
hIL-10 secretion, monocytes, Donor 1 (folds of induction over background) [2]: 4.2 fold
hTNF-alpha secretion, monocytes, Donor 1 (folds of induction over background) [2]: 13.8 fold
MCP-1 secretion, normal B cells, Donor 1 (folds of induction over background) [3]: 5.5 fold
MCP-1 secretion, normal B cells, Donor 3 (folds of induction over background) [3]: 1.7 fold
MIP-1beta secretion, normal B cells, Donor 1 (folds of induction over background) [3]: 2.2 fold
MIP-1beta secretion, normal B cells, Donor 2 (folds of induction over background) [3]: 2.6 fold
MIP-1beta secretion, normal B cells, Donor 3 (folds of induction over background) [3]: 17.8 fold
hIL-6 secretion, normal B cells, Donor 1 (folds of induction over background) [3]: 5.7 fold
hIL-6 secretion, normal B cells, Donor 2 (folds of induction over background) [3]: 3.8 fold
hIL-6 secretion, normal B cells, Donor 3 (folds of induction over background) [3]: 20.5 fold
hIL-8 secretion, normal B cells, Donor 1 (folds of induction over background) [3]: 7.7 fold
hIL-8 secretion, normal B cells, Donor 2 (folds of induction over background) [3]: 14.7 fold
hIL-8 secretion, normal B cells, Donor 3 (folds of induction over background) [3]: 49.3 fold
hIL-10 secretion, normal B cells, Donor 1 (folds of induction over background) [3]: 3.6 fold
hIL-10 secretion, normal B cells, Donor 3 (folds of induction over background) [3]: 3.6 fold
hTNF-alpha secretion, normal B cells, Donor 1 (folds of induction over background) [3]: 3.7 fold
hTNF-alpha secretion, normal B cells, Donor 2 (folds of induction over background) [3]: 4.8 fold
hTNF-alpha secretion, normal B cells, Donor 3 (folds of induction over background) [3]: 22.8 fold
B3: CD40L on formaldehyde-fixed transfected CHO cells (ligand)
chain: MIETYNQTSPRSAATGLPISMKIFMYLLTVFLITQMIGSALFAVYLHRRLDKIEDERNLHEDFVFMKTIQRCNTGERSLSLLNCEEIKSQFEGFVKDIMLNKEETKKENSFEMQKGDQNPQIAAHVISEASSKTTSVLQWAEKGYYTMSNNLVTLENGKQLTVKRQGLYYIYAQVTFCSNREASSQAPFIASLCLKSPGRFERILLRAANTHSSAKPCGQQSIHLGGVFELQPGASVFVNVTDPSQVSHGTGFTSFGLLKL
